# Data: the Immune Epitope Database (IEDB)
# Tests used:
# HLA-A*02:03 [1] = assay: IEDB peptide-MHC binding, purified MHC/competitive/fluorescence; filed as Kd, often an IC50 or EC50 that approximates it; ≥ and ≤ were set here for values at or beyond the usual limits of such assays; conditions: source organism: Influenza A virus H3N2
# HLA-B*08:01 [2] = assay: as above; conditions: source organism: Influenza A virus H3N2
# HLA-A*26:02 = assay: as above; conditions: source organism: Influenza A virus H3N2
# HLA-B*27:05 [3] = assay: as above; conditions: source organism: Influenza A virus H3N2
# HLA-A*01:01 = assay: IEDB peptide-MHC binding, purified MHC/direct/fluorescence; filed as Kd, often an IC50 or EC50 that approximates it; ≥ and ≤ were set here for values at or beyond the usual limits of such assays
# HLA-B*15:17 = assay: as above; conditions: source organism: H9N2 subtype Influenza A virus (A/swine/Korea/S83/2004(H9N2))
# HLA-B*15:02 [4] = assay: as above; conditions: source organism: H9N2 subtype Influenza A virus (A/swine/Korea/S83/2004(H9N2))
# HLA-B*15:01 = assay: as above
# HLA-B*48:01 = assay: as above
# HLA-A*11:01 = assay: as above
# HLA-B*57:01 = assay: as above
# HLA-B*07:02 = assay: as above
# HLA-B*39:01 = assay: as above
# HLA-A*69:01 = assay: as above
# HLA-B*46:01 [5] = assay: as above
# HLA-A*02:01 = assay: as above
# HLA-A*68:02 = assay: as above; conditions: source organism: H9N2 subtype Influenza A virus (A/swine/Korea/S83/2004(H9N2))
# HLA-B*58:01 = assay: as above
# HLA-A*31:01 = assay: as above
# HLA-C*12:03 = assay: as above
# HLA-A*03:01 = assay: as above
# HLA-B*51:01 = assay: as above
# HLA-B*18:01 = assay: as above
# HLA-A*26:01 = assay: as above
# HLA-B*27:03 = assay: as above
# HLA-A*02:11 = assay: as above; conditions: source organism: Yersinia pestis CA88-4125
# HLA-A*02:03 [6] = assay: as above
# HLA-A*02:19 = assay: as above
# HLA-A*02:16 = assay: as above
# HLA-A*02:12 = assay: as above
# HLA-B*46:01 [7] = assay: IEDB peptide-MHC binding, purified MHC/competitive/fluorescence; filed as Kd, often an IC50 or EC50 that approximates it; ≥ and ≤ were set here for values at or beyond the usual limits of such assays; conditions: source organism: SARS-CoV1
# HLA-B*40:01 = assay: IEDB peptide-MHC binding, purified MHC/direct/fluorescence; filed as Kd, often an IC50 or EC50 that approximates it; ≥ and ≤ were set here for values at or beyond the usual limits of such assays
# HLA-C*08:02 = assay: as above
# HLA-C*14:02 = assay: as above; conditions: source organism: SARS-CoV1
# HLA-B*08:01 [8] = assay: as above
# HLA-B*27:05 [9] = assay: as above
# HLA-C*03:03 = assay: as above; conditions: source organism: SARS-CoV1
# HLA-C*15:02 = assay: as above; conditions: source organism: SARS-CoV1
# HLA-B*15:02 [10] = assay: IEDB peptide-MHC binding, purified MHC/competitive/fluorescence; filed as Kd, often an IC50 or EC50 that approximates it; ≥ and ≤ were set here for values at or beyond the usual limits of such assays
# HLA-C*06:02 = assay: IEDB peptide-MHC binding, purified MHC/direct/fluorescence; filed as Kd, often an IC50 or EC50 that approximates it; ≥ and ≤ were set here for values at or beyond the usual limits of such assays; conditions: source organism: Kurkino virus
# HLA-C*07:02 = assay: as above; conditions: source organism: Kurkino virus
# HLA-B*44:02 = assay: as above; conditions: source organism: Brucella melitensis
# HLA-B*73:01 = assay: as above; conditions: source organism: Brucella suis 1330
# [11] = source organism: H9N2 subtype Influenza A virus (A/swine/Korea/S83/2004(H9N2))
# [12] = source organism: Coxiella burnetii Q321
# [13] = source organism: Yersinia pestis CA88-4125
# [14] = source organism: Yersinia enterocolitica subsp. enterocolitica 8081
# [15] = source organism: Orthohantavirus dobravaense
# [16] = source organism: Brucella melitensis
# [17] = source organism: Bacillus cereus
sequence,measurement,setting,value
FQKDAKVLF,Kd,HLA-A*02:03 [1],≥ 20 µM
same,Kd,HLA-B*08:01 [2],≥ 20 µM
same,Kd,HLA-A*26:02,≥ 20 µM
same,Kd,HLA-B*27:05 [3],3.34 µM
same,Kd,HLA-A*01:01; [11],≥ 20 µM
same,Kd,HLA-B*15:17,≥ 20 µM
same,Kd,HLA-B*15:02 [4],1.72 µM
same,Kd,HLA-B*15:01; [11],0.116 µM
same,Kd,HLA-B*48:01; [11],0.99 µM
same,Kd,HLA-A*11:01; [11],≥ 20 µM
same,Kd,HLA-B*57:01; [11],≥ 20 µM
same,Kd,HLA-B*07:02; [11],≥ 20 µM
same,Kd,HLA-B*39:01; source organism: Influenza A virus(A/swine/Shandong/fZC/2003(H9N2)),≥ 20 µM
same,Kd,HLA-A*69:01; [11],≥ 20 µM
same,Kd,HLA-B*46:01 [5]; [11],≥ 20 µM
same,Kd,HLA-A*02:01; [11],≥ 20 µM
same,Kd,HLA-A*68:02,≥ 20 µM
same,Kd,HLA-B*58:01; [11],≥ 20 µM
same,Kd,HLA-A*31:01; [11],≥ 20 µM
IAFTRLFTV,Kd,HLA-C*12:03; source organism: Coxiella burnetii RSA 493,≤ 0.001 µM
same,Kd,HLA-A*03:01; [12],≥ 20 µM
same,Kd,HLA-B*15:01; [12],≥ 20 µM
same,Kd,HLA-B*39:01; [12],≥ 20 µM
same,Kd,HLA-B*51:01; [12],3.24 µM
same,Kd,HLA-B*46:01 [5]; [12],≥ 20 µM
same,Kd,HLA-B*18:01; [12],≥ 20 µM
same,Kd,HLA-A*26:01; [12],≥ 20 µM
same,Kd,HLA-B*27:03; [12],≥ 20 µM
KLLARFLFE,Kd,HLA-A*02:11,≥ 20 µM
same,Kd,HLA-A*02:03 [6]; [13],≥ 20 µM
same,Kd,HLA-A*03:01; [13],≥ 20 µM
same,Kd,HLA-B*15:01; [13],≥ 20 µM
same,Kd,HLA-B*57:01; [13],≥ 20 µM
same,Kd,HLA-B*39:01; [13],≥ 20 µM
same,Kd,HLA-B*51:01; [13],≥ 20 µM
same,Kd,HLA-B*46:01 [5]; [13],≥ 20 µM
same,Kd,HLA-A*02:19; [13],≥ 20 µM
same,Kd,HLA-A*02:01; [13],≥ 20 µM
same,Kd,HLA-A*02:16; [13],≥ 20 µM
same,Kd,HLA-B*18:01; [13],≥ 20 µM
same,Kd,HLA-A*26:01; [13],≥ 20 µM
same,Kd,HLA-B*27:03; [13],≥ 20 µM
same,Kd,HLA-A*02:12; [13],≥ 20 µM
KSYEHQTPF,Kd,HLA-B*46:01 [7],0.0469 µM
same,Kd,HLA-A*01:01; source organism: SARS-CoV1,≥ 27.1 µM
same,Kd,HLA-B*40:01; source organism: SARS-CoV1,≥ 91.4 µM
same,Kd,HLA-C*12:03; source organism: SARS-CoV1,0.014 µM
same,Kd,HLA-C*08:02; source organism: SARS-CoV1,≥ 20 µM
same,Kd,HLA-A*03:01; source organism: SARS-CoV1,0.0898 µM
same,Kd,HLA-B*15:01; source organism: SARS-CoV1,0.169 µM
same,Kd,HLA-A*11:01; source organism: SARS-CoV1,0.837 µM
same,Kd,HLA-B*07:02; source organism: SARS-CoV1,5.72 µM
same,Kd,HLA-C*14:02,0.093 µM
same,Kd,HLA-B*08:01 [8]; source organism: SARS-CoV1,14.4 µM
same,Kd,HLA-B*27:05 [9]; source organism: SARS-CoV1,4.42 µM
same,Kd,HLA-C*03:03,0.035 µM
same,Kd,HLA-B*58:01; source organism: SARS-CoV1,0.088 µM
same,Kd,HLA-A*31:01; source organism: SARS-CoV1,0.186 µM
same,Kd,HLA-C*15:02,0.011 µM
LAYLAGWII,Kd,HLA-A*02:03 [6]; [14],≥ 20 µM
same,Kd,HLA-A*03:01; [14],≥ 20 µM
same,Kd,HLA-B*15:01; [14],≥ 20 µM
same,Kd,HLA-B*39:01; [14],≥ 20 µM
same,Kd,HLA-B*51:01; [14],1.39 µM
same,Kd,HLA-B*46:01 [5]; [14],≥ 20 µM
same,Kd,HLA-A*02:19; [14],≥ 20 µM
same,Kd,HLA-A*02:01; [14],≥ 20 µM
same,Kd,HLA-A*02:16; [14],≥ 20 µM
same,Kd,HLA-B*18:01; [14],≥ 20 µM
same,Kd,HLA-A*26:01; [14],≥ 20 µM
same,Kd,HLA-B*27:03; [14],≥ 20 µM
same,Kd,HLA-A*02:12; [14],≥ 20 µM
LLRMFDHPF,Kd,HLA-B*15:02 [10]; source organism: Vibrio vulnificus YJ016,0.0209 µM
LQLARDGMF,Kd,HLA-B*15:02 [10]; source organism: Brucella suis ATCC 23445,≥ 20 µM
RRNDGVVQY,Kd,HLA-C*06:02,0.061 µM
same,Kd,HLA-C*07:02,0.029 µM
same,Kd,HLA-B*48:01; [15],≥ 20 µM
same,Kd,HLA-B*27:05 [9]; [15],0.146 µM
RVISDGYFK,Kd,HLA-A*01:01; [16],≥ 20 µM
same,Kd,HLA-B*40:01; [16],≥ 20 µM
same,Kd,HLA-B*44:02,≥ 20 µM
same,Kd,HLA-A*03:01; [16],0.395 µM
same,Kd,HLA-B*15:01; [16],≥ 20 µM
same,Kd,HLA-A*11:01; [16],0.0538 µM
same,Kd,HLA-B*07:02; [16],≥ 20 µM
same,Kd,HLA-A*69:01; [16],≥ 20 µM
same,Kd,HLA-B*08:01 [8]; [16],≥ 20 µM
same,Kd,HLA-B*27:05 [9]; [16],7.19 µM
same,Kd,HLA-A*02:01; [16],≥ 20 µM
same,Kd,HLA-B*58:01; [16],≥ 20 µM
same,Kd,HLA-B*73:01,≥ 20 µM
same,Kd,HLA-A*26:01; [16],≥ 20 µM
same,Kd,HLA-A*31:01; [16],0.042 µM
YTLNDAPYI,Kd,HLA-C*08:02; source organism: Bacillus anthracis str. A0389,0.181 µM
same,Kd,HLA-A*69:01; [17],0.0024 µM
same,Kd,HLA-A*02:01; [17],0.0381 µM
